{
  "source": "patent US20240287169A1",
  "about": "(AULOS BIOSCIENCE, published 2024)",
  "binders": {"B1": {"name": "BDG17.069 (AU-007) (antibody, human IgG1, kappa, L234A L235A, V domains shown)", "VH": "QVQLVQSGAEVKKPGSSVKVSCKASGYSITDDLIHWVRQAPGQGLEWMGWIDPEDGETNYAQKFQGRVTLTADTSTSTAYMELSSLRSEDTAVYYCARSLDSTWIYPFAYWGQGTLVTVSS", "VL": "DIVMTQSPDSLAVSLGERATINCKSSQSLLRRGNQKNHLAWYQQKPGQPPKLLIYDASTGQSGVPDRFSGSGSGTDFTLTISSLQAEDVAVYYCLQSYITPPTFGAGTKVEIKR", "notes": "Human IgG1-LALA"}},
  "key": {"Human IL-2 [1]": {"biological_target": "T1, Human IL-2 (human, UniProt P60568 21-153)", "T1 sequence (P60568 21-153 limits assumed)": "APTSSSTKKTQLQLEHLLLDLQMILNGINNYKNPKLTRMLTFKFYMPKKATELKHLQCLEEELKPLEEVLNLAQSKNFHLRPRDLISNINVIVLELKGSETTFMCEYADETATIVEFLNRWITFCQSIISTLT", "assay": "cell-based or functional assay"}, "Human IL-2 [2]": {"biological_target": "T1, Human IL-2", "assay": "SPR (Biacore T200), AU-007 captured on a CM5 chip, h-IL2 as analyte at 0.0625-10 nM, multi-cycle, 1:1 binding model", "protocol": "Affinity and epitope binding site was assessed using Surface Plasmon Resonance (SPR). […] Subsequently, soluble hCD25 was injected followed by the injection of soluble hCD122. […] Diagrams represent SPR sensorgram traces of complex formation of IL-2R/Cytokine.\nThe chip was crosslinked with a human antibody capture kit (BR100839, GE Healthcare, USA) according to the manufacturer's protocol to target 3000-4000 RU. […] Between each cycle, all channels underwent regeneration using 3M MgCl₂. Binding kinetics were determined by the 1:1 Binding model using the Biacore […] evaluation software, version 3.1."}, "cynomolgus monkey IL-2": {"biological_target": "T2, cynomolgus monkey IL-2 (cynomolgus monkey, UniProt Q29615 21-154)", "T2 construct": "also called cIL-2", "T2 sequence (Q29615 21-154 limits assumed)": "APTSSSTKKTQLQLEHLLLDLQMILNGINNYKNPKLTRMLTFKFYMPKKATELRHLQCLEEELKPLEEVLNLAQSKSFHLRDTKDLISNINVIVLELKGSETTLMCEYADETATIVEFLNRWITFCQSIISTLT", "assay": "SPR, multi-cycle, antibody captured, cynomolgus IL-2 analyte", "source_text": "(§1) The SPR analysis was done on Biacore […] (GE healthcare, USA) on CM5 chips (cat:br10005-30, GE healthcare, USA). The chip was crosslinked with primary capture Ab against human IgG (Cat: br-1008-39, GE healthcare, USA) or primary capture antibody against mouse IgG (Cat: BR-1008-38, GE healthcare, USA) to a target of 8000RU. After cross-linking of the primary Ab, the mouse and human tested antibodies were immobilized on the primary Ab to a target of approximately additional 500RU. […] At the end of each cycle the analyte and tested antibody were stripped from the chip using 3M MgCl₂ and new tested Ab was loaded on the chip as described above. When indicated, instead of stripping the antibodies, kinetics was determined by injecting series of analyte concentrations in one cycle by the Single-cycle kinetics method. Binding kinetics were determined by the 1:1 Binding model using the Biacore T200 evaluation software."}, "Human IL-2 [3]": {"biological_target": "T1, Human IL-2", "assay": "SPR, multi-cycle, antibody captured, hIL-2 analyte", "source_text": "as §1"}, "Mouse IL-2": {"biological_target": "T3, Mouse IL-2 (mouse, UniProt P04351 21-169)", "T3 construct": "Soluble analyte in SPR; also called mIL-2", "T3 sequence (looked up)": "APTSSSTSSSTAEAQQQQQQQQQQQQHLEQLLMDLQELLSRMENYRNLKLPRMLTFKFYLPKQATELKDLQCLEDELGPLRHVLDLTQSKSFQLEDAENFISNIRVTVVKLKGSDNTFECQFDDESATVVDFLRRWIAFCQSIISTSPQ", "assay": "no assay described; stated in the methods of the LL/2 tumor model"}},
  "data": [
    {"binder": "B1", "values": [
      {"measurement": "IC50 (read off the curve) (%pSTAT5 in CD4+ Tregs of hPBMC stimulated with hIL-2)", "setting": "Human IL-2 [1]", "result": "~1000", "unit": "pM"},
      {"measurement": "Kd", "setting": "Human IL-2 [2]", "result": 0.0108, "unit": "nM"},
      {"measurement": "koff", "setting": "Human IL-2 [2]", "result": 0.000487, "unit": "s⁻¹"},
      {"measurement": "kon", "setting": "Human IL-2 [2]", "result": "4.5e+07", "unit": "M⁻¹ s⁻¹"},
      {"measurement": "Kd", "setting": "cynomolgus monkey IL-2", "result": 0.0117, "unit": "nM"},
      {"measurement": "koff", "setting": "cynomolgus monkey IL-2", "result": 0.000584, "unit": "s⁻¹"},
      {"measurement": "kon", "setting": "cynomolgus monkey IL-2", "result": "4.98e+07", "unit": "M⁻¹ s⁻¹"},
      {"measurement": "Kd", "setting": "Human IL-2 [3]", "result": 0.0108, "unit": "nM"},
      {"measurement": "koff", "setting": "Human IL-2 [3]", "result": 0.000487, "unit": "s⁻¹"},
      {"measurement": "kon", "setting": "Human IL-2 [3]", "result": "4.5e+07", "unit": "M⁻¹ s⁻¹"},
      {"measurement": "binding result", "setting": "Mouse IL-2", "result": "no binding"}
    ]}
  ]
}
